The results in this text go back to patent publication US20160222395.

In data set [1] the test system is ALS2_T1 TALE nuclease left subunit (synthetic construct). Kind of data set: cell_activity. The following applies: yeast beta-galactosidase recombination assay, 37 C, as pair with right subunit; 0.86 (0.02) at 30 C; also cleaves in N. benthamiana leaves (T7EI).
The subject of data set [2] is ALS2_T1 TALE nuclease right subunit (synthetic construct). Kind of data set: cell_activity. The following applies: yeast beta-galactosidase recombination assay, 37 C, as pair with left subunit; 0.86 (0.02) at 30 C; also cleaves in N. benthamiana leaves (T7EI).

For “TAGCTTGTTCCACATTT (double strand) [ALS2_T1 left target half-site]”, the activity (relative to I-SceI (max 1.0)) in data set [1] is 0.97.

Take “ACAGTACGACCCAGTCT (double strand) [ALS2_T1 right target half-site]”: the activity (relative to I-SceI (max 1.0)) in data set [2] worked out at 0.97.
